Measurements published in PMC11059233.

Biological target: HLA-B*35:01 expressed in C1R cells (C1R.B*35:01) (human | human (endogenous in C1R))

Substance: influenza B virus PB2_(66-70) peptide
- IFN-γ+TNF+ CD8+ T cells (expanded with pool J) after restimulation with peptide-pulsed C1R.B*35:01; donors responding: 1 of 6 donors
